Series [1] concerns male Sprague Dawley rats. Put plainly: Acute cardiovascular and renal actions of i.v. infusion in anesthetized rats. The format is in vivo. The settings on record: rat. An excerpt:
The protocol is outlined in FIG. 9A.
Rats were then subjected to vessel and bladder cannulation for peptide infusion, BP measurement, blood sampling and urine collection. A polyethylene (PE)-5G tube catheter was placed into the jugular vein for inulin, peptide intravenous infusion. The carotid artery was cannulated with a PE-50 tube catheter for BP measurement (Sonometrics, London, Ontario, Canada) and blood sampling. The bladder was accessed and cannulated with a PE-50 tube catheter for passive urine collection. After completion of the above procedural set up, a 45 min equilibration period was performed that included continuous IV inulin and saline infusion. After the 45 min equilibration period, baseline (Time==Q min) parameters were recorded and one blood sampling (0.7 ml) was performed. The inulin and saline infusion was replaced by a continuous intravenously (i.v.) infusion of equimolar ANP-Ser19/ST or ANP-Ser25/ST for 60 min. The infusion rate was weight adjusted and equals weight*0.7/6000 ml/min. After 60 min infusion (Time=60 min), another blood sampling (0.7 ml) was conducted. […] Urine was collected at the end of the infusion (Time=60 min) and the study (Time=90 min). Urinary sodium was measured with pHOx Ultra (Nova Biomedical, Waltham, Mass.). Urine flow (UV) and urinary sodium excretion (UNaV) were calculated as urine volume or sodium clearance per min, Inulin concentrations were measured with enthrone method and inulin clearance was used for GFR quantification. Urinary cGMP and ANP excretion rate was calculated based on raw values obtained in the urine and UV.

Series [2] has as its target neprilysin (NEP) (Homo sapiens, UniProt P08473). The experiment in a line: In vitro degradation by neprilysin, MALDI-TOF time course. The protocol: (§1) Many peptide hormones are destined for endocrine circulation where they are rapidly degraded with half-lives reaching only a few minutes^6-8.
(§2) For enzymatic degradation assays using either NEP or DPP-IV (R&D systems, UK), an enzyme titration was carried out to ensure full degradation within one hour of reaction time.
(§3) MALDI-TOF-MS was performed on a Bruker Autoflex instrument (Bruker Daltonik GmbH, Bremen, Germany) by mixing the quenched aliquots with a saturated solution of α-Cyano-4-hydroxycinnamic acid in ACN/H2O/TFA (70:30:0.1) at a ratio 1:1 on a target steel plate and mass-spectra were acquired in linear mode.
Reactions were performed in 50 mM Tris, 0.05% Brij-35, pH 9 (Neprilysin), or 50 mM Tris, 20 mM NaCl, pH 7.5 (IDE) and incubated at 37° C.

Series [3] concerns the target dipeptidyl peptidase IV (DPP-IV) (Homo sapiens, UniProt P27487). Put plainly: In vitro degradation by DPP-IV, MALDI-TOF time course. The protocol: as §1, §2, §3
Series [4] addresses T1, NPR-A receptor (UniProt P16066 33-1061, limits assumed).
T1 sequence (looked up): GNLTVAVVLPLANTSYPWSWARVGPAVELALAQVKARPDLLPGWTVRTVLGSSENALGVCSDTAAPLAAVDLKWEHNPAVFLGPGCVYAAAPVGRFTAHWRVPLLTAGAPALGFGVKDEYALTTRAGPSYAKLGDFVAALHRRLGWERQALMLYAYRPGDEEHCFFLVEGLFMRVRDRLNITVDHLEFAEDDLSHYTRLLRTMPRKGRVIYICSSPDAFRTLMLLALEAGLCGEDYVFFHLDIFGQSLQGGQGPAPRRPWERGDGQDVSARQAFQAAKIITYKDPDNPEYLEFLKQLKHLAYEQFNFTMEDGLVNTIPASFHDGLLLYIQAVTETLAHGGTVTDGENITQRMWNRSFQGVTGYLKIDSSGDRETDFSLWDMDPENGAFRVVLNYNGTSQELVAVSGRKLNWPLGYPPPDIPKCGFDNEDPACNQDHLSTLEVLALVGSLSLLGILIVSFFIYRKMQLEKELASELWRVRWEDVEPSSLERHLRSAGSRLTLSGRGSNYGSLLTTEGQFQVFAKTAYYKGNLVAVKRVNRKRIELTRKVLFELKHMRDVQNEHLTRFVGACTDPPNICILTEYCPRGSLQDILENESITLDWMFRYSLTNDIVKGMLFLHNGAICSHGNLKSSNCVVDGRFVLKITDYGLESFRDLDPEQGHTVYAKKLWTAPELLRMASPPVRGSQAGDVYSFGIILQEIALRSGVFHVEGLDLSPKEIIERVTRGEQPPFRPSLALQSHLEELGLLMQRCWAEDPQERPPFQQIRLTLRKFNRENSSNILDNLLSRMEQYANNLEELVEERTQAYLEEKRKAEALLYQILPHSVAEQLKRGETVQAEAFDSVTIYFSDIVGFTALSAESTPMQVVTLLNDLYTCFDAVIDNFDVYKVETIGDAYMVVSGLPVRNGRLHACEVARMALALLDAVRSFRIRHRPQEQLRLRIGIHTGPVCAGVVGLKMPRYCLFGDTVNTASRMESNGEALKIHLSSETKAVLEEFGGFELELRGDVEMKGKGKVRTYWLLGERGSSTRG
The experiment in a line: cell-based or functional assay.

Setting [5] is: 600 pmol/kg/min i.v., 60 minutes infusion.

No end group written: not given here. *: point of attachment. diST = diST O-glycan, CC(=O)N[C@@H]1[C@@H](O[C@@H]2O[C@H](CO)[C@H](O)[C@H](O[C@]3(C(=O)O)C[C@H](O)[C@@H](NC(C)=O)[C@H]([C@H](O)[C@H](O)CO)O3)[C@H]2O)[C@@H](O)[C@@H](CO[C@]2(C(=O)O)C[C@H](O)[C@@H](NC(C)=O)[C@H]([C@H](O)[C@H](O)CO)O2)O[C@@H]1*; code T = T O-glycan (Galβ1-3GalNAc), CC(=O)N[C@@H]1[C@@H](O[C@@H]2O[C@H](CO)[C@H](O)[C@H](O)[C@H]2O)[C@@H](O)[C@@H](CO)O[C@@H]1*; ST = sialylated T O-glycan

Chain of neprilysin (NEP) (P08473 whole entry): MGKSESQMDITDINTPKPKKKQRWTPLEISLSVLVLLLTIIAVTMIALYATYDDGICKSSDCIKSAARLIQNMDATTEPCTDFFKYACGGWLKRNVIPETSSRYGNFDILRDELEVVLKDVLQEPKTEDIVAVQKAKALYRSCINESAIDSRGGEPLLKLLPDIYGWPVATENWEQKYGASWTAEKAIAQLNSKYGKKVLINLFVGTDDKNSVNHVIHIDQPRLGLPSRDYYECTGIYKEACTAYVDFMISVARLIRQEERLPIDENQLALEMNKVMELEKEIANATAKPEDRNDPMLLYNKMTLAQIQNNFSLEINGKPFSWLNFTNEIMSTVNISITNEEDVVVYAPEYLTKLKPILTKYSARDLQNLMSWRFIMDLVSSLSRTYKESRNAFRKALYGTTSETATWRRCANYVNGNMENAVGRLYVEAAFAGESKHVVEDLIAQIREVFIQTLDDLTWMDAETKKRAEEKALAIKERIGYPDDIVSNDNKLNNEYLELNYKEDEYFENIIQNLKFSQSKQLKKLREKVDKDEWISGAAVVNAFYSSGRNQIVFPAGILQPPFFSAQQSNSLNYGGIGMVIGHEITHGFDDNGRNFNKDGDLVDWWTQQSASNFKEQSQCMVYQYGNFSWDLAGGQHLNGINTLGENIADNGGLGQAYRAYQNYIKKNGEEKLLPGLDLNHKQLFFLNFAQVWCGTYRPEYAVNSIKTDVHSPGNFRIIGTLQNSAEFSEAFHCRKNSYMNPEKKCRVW
Chain of dipeptidyl peptidase IV (DPP-IV) (P27487 whole entry): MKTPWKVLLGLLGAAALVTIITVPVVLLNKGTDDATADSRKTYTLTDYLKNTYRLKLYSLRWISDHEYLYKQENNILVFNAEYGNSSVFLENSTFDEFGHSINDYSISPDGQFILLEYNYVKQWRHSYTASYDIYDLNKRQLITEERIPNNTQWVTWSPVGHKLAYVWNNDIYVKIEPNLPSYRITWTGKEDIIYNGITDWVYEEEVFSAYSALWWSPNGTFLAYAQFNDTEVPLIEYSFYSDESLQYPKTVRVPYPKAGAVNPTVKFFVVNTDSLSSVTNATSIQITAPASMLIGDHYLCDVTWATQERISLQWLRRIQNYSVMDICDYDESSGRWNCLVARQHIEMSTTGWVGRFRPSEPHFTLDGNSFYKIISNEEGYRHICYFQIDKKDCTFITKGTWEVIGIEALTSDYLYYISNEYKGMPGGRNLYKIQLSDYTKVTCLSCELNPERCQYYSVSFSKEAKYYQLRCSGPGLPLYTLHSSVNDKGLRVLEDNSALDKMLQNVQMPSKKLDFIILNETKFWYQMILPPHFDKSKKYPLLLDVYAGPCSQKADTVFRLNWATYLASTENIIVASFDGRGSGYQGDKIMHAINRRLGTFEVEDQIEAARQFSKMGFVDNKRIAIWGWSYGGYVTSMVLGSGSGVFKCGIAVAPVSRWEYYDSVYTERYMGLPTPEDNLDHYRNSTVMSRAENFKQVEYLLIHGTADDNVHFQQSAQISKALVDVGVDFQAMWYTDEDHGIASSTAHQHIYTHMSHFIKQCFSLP

For `CC[C@H](C)[C@@H]1NC(=O)[C@H](CCCNC(=N)N)NC(=O)[C@H](CC(=O)O)NC(=O)[C@H](CCSC)NC(=O)[C@H](CCCNC(=N)N)NC(=O)CNC(=O)CNC(=O)[C@H](Cc2ccccc2)NC(=O)[C@@H](NC(=O)[C@H](CO)NC(=O)[C@H](CO)NC(=O)[C@H](CCCNC(=N)N)NC(=O)[C@H](CCCNC(=N)N)NC(=O)[C@H](CC(C)C)NC(=O)[C@@H](N)CO)CSSC[C@@H](C(=O)N[C@@H](CC(N)=O)C(=O)N[C@@H](CO)C(=O)N[C@@H](Cc2ccccc2)C(=O)N[C@@H](CCCNC(=N)N)C(=O)N[C@@H](Cc2ccc(O)cc2)C(=O)O)NC(=O)CNC(=O)[C@H](CC(C)C)NC(=O)CNC(=O)[C@H](CO[C@H]2O[C@H](CO)[C@H](O)[C@H](O[C@@H]3O[C@H](CO)[C@H](O)[C@H](O[C@]4(C(=O)O)C[C@H](O)[C@@H](NC(C)=O)[C@H]([C@H](O)[C@H](O)CO)O4)[C@H]3O)[C@H]2NC(C)=O)NC(=O)[C@H](CCC(N)=O)NC(=O)[C@H](C)NC(=O)CNC1=O` [ANP-Ser19/ST], in series [1] (setting [5]), the “change in mean arterial pressure (MAP) over the infusion period” value is “decrease” and the “change in plasma cGMP over the infusion period” value is given as “increase”. Moreover, the “MAP in the 30 minutes clearance period” value in series [1] (after 60 min infusion) is “sustained or further reduced”. In addition, the “effect on diuresis and natriuresis” value in series [1] (i.v. infusion) is “did not result in increased diuresis nor natriuresis”. Turning to `CC[C@H](C)[C@H](NC(=O)[C@H](Cc1ccccc1)NC(=O)[C@H](CCC(=O)O)NC(=O)[C@H](CCCCN)NC(=O)[C@H](C)NC(=O)[C@H](C)NC(=O)[C@H](CCC(N)=O)NC(=O)CNC(=O)[C@H](CCC(=O)O)NC(=O)[C@H](CC(C)C)NC(=O)[C@H](Cc1ccc(O)cc1)NC(=O)[C@H](CO)NC(=O)[C@H](CO)NC(=O)[C@@H](NC(=O)[C@H](CC(=O)O)NC(=O)[C@H](CO)NC(=O)[C@@H](NC(=O)[C@H](Cc1ccccc1)NC(=O)[C@@H](NC(=O)CNC(=O)[C@H](CCC(=O)O)NC(=O)[C@H](C)NC(=O)[C@@H](N)Cc1c[nH]cn1)[C@@H](C)O)[C@@H](C)O[C@H]1O[C@H](CO)[C@H](O)[C@H](O[C@@H]2O[C@H](CO)[C@H](O)[C@H](O[C@]3(C(=O)O)C[C@H](O)[C@@H](NC(C)=O)[C@H]([C@H](O)[C@H](O)CO)O3)[C@H]2O)[C@H]1NC(C)=O)C(C)C)C(=O)N[C@@H](C)C(=O)N[C@@H](Cc1c[nH]c2ccccc12)C(=O)N[C@@H](CC(C)C)C(=O)N[C@H](C(=O)N[C@@H](CCCCN)C(=O)NCC(=O)N[C@@H](CCCNC(=N)N)C(N)=O)C(C)C` [GLP-1-Thr7/ST], the “remained (completely) intact after incubation with NEP” value in series [2] (37° C., MALDI-TOF) is reported as 60 min. Also, the “remained fully intact after/until incubation with DPP-IV” value in series [3] came to 120 min. For `CC[C@H](C)[C@H](NC(=O)[C@H](CO)NC(=O)[C@H](CC(N)=O)NC(=O)[C@H](CC(C)C)NC(=O)[C@H](Cc1ccc(O)cc1)NC(=O)[C@H](CCCCN)NC(=O)[C@H](CCCCN)NC(=O)[C@@H](NC(=O)[C@H](C)NC(=O)[C@H](CCSC)NC(=O)[C@H](CCC(N)=O)NC(=O)[C@H](CCCCN)NC(=O)[C@H](CCCNC(=N)N)NC(=O)[C@H](CC(C)C)NC(=O)[C@H](CCCNC(=N)N)NC(=O)[C@@H](NC(=O)[C@H](Cc1ccc(O)cc1)NC(=O)[C@H](CC(N)=O)NC(=O)[C@H](CC(=O)O)NC(=O)[C@@H](NC(=O)[C@H](Cc1ccccc1)NC(=O)[C@@H](NC(=O)[C@H](C)NC(=O)[C@H](CC(=O)O)NC(=O)[C@H](CO)NC(=O)[C@@H](N)Cc1c[nH]cn1)C(C)C)[C@@H](C)O[C@H]1O[C@H](CO)[C@H](O)[C@H](O)[C@H]1NC(C)=O)[C@@H](C)O)C(C)C)C(=O)N[C@@H](CC(C)C)C(=O)N[C@@H](CC(N)=O)C(N)=O` [VIP-Thr7/Tn], the “residual full length / partially intact peptide detectable after incubation with NEP” value in series [2] (37° C., MALDI-TOF) was 15 min.

In the case of “Galanin-Ser55/ST: sialylated Galanin variant”, in series [2], the “remained intact / resistant to NEP degradation even after” value was 24 h and the “state after overnight incubation with neprilysin” value was “remained partially intact”. Turning to “Ser23-T: Galanin Ser23 T extended glycoform”, in series [2], the “time to complete degradation by NEP” value is listed as 120 min. With Ser23-Tn: Galanin Ser23-Tn glycoform, the “time to complete degradation by NEP” value in series [2] came out at 120 min.

As for SLRRSSCFGGRMDRIGAQSGLGCNSFRY (not fully specified (residue 25); ends and bridges not checked) [ANP with one O-glycan (GalNAc/Tn) at residue 25], the “increase in efficacy, cGMP generated” value in series [4] is roughly 20%. In the case of SLRRSSCFGGRMDRIGAQS(code T)GLGCNSFRY (ends and bridges not checked) [ANP with T O-glycan at residue 19], in series [4], the “potency, cGMP generated (HTRF)” value worked out at 160 nM and the “reduction in efficacy, cGMP generated” value was roughly 20%. In the case of SLRRSSCFGGRMDRIGAQSGLGCNS(code T)FRY (ends and bridges not checked) [ANP with T O-glycan at residue 25], in series [4], the “increase in efficacy, cGMP generated” value was roughly 20% and the “potency, cGMP generated (HTRF)” value is 265 nM. SLRRSSCFGGRMDRIGAQS(diST)GLGCNSFRY (not fully specified (bridges); ends and bridges not checked) [ANP with diST O-glycan at residue 19]: the “reduction in efficacy, cGMP generated” value in series [4] is roughly 20%.

As for SLRRSSCFGGRMDRIGAQSGLGCNSFRY (not fully specified (residue 19); ends and bridges not checked) [ANP with one O-glycan (GalNAc/Tn) at residue 19], the “reduction in efficacy, cGMP generated” value in series [4] was roughly 20%. In the case of SLRRSSCFGGRMDRIGAQSGLGCNS(diST)FRY (not fully specified (bridges); ends and bridges not checked) [ANP with diST O-glycan at residue 25], the “increase in efficacy, cGMP generated” value in series [4] was roughly 20%. On to SLRRSSCFGGRMDRIGAQSGLGCNS(ST)FRY (ends and bridges not checked) [ANP with ST O-glycan at residue 25], for which, in series [4], the “increase in efficacy, cGMP generated” value is roughly 20% and the “potency, cGMP generated (HTRF)” value was 717 nM. For SLRRSSCFGGRMDRIGAQS(ST)GLGCNSFRY (ends and bridges not checked) [ANP with ST O-glycan at residue 19], in series [4], the “potency, cGMP generated (HTRF)” value is 296 nM and the “reduction in efficacy, cGMP generated” value was roughly 20%.

For the origin of these results see patent US20210171598A1, “PEPTIDE HORMONE WITH ONE OR MORE O-GLYCANS” (priority 2017, published 2021).
